In patent US20180134794A1 (Regeneron, published 2018):

B1: H4H13300P2 (antibody, human IgG4, V domains shown)
VH: QVQLVESGGGVVQPGRSLRLSCAVSGFTFSSYGMHWVRQAPGKGLEWVANIWYDGTNDYYPYSVKGRFTISRDNSQNTLYLQMNSLRAEDTAVYYCAREDFINYRSFDYWGQGTLVTVSS
VL: not shown
B2: H4H13299P2 (antibody, human IgG4, V domains shown)
VH: EVQLVESGGGLVQPGGSLRLSCAASGFIFSNYEMNWVRQAPGKGLEWISYITSSGNMKYYADSVKGRFTISRDNDKNSLYLQMSSLRVEDTAVYYCVRGGRFLEWLTYYVMVVWGQGTTVTVSS
VL: not shown
B3: H4H13290P2 (antibody, human IgG4, V domains shown)
VH: QVQLQESGPGLVKPSETLSLTCTVSGDSISSYYWTWIRQPPGKGLEWIGYIFYRGGTTYNPSLKSRVTISVDTSKNQFSLKLRSVTAADTAVYYCARGDDLLVVTSVYWYIDLWGRGTLVTVSS
VL: not shown
B4: H4H13331P2 (antibody, human IgG4, V domains shown)
VH: QVQLQESGPGLVKSSETLSLTCTVSGGSIRNFYWSWLRQPPGKGLEWIGHINYNGGTDYNPSLKSRVTISVDTSKNQFSLNLNSVTAADTAVYYCARQRFYGMDVWGPGTTVTVSS
VL: not shown
B5: H4H13309P2 (antibody, human IgG4, V domains shown)
VH: QVQLVQSGTEVKEPGASVKVSCKASGYSFTTYGISWLRQAPGQGLEWMGWISTYNGDTISAQMLQDRVTLTADTSTRTAYMELRSLRSDDTAVYYCARGHEYDSLVYSYWGQGTLVTVSS
VL: not shown
B6: H4H13318P2 (antibody, human IgG4, V domains shown)
VH: QVQLVESGGGVVQPGRSLRLSCVASGFSFSNFGMHWVRQAPGKGLEWVAIIWYDGSNKYYSDSVKGRFTISRDNSKNTLYLQMNSLRVDDTAVYYCARFDRWKFDAFDIWGQGTMVTVSS
VL: not shown
B7: H4H13319P2 (antibody, human IgG4, V domains shown)
VH: QVQLVESGGGVVQPGRSLRLSCAASGFTFSSFAMHWVRQAPGKGLEWVAVIWYDGSNDYYAASVKGRFTISRDNSKNTLYLEMNRLRAEDTAVYHCARDNWNYWGGMDVWGQGTTVTVSS
VL: not shown
B8: H4H14634D (bispecific antibody, human IgG4, V domains shown)
VH 1: QVQLQESGPGLVKPSETLSLTCTVSGDSISSYYWTWIRQPPGKGLEWIGYIFYRGGTTYNPSLKSRVTISVDTSKNQFSLKLRSVTAADTAVYYCARGDDLLVVTSVYWYIDLWGRGTLVTVSS
VH 2: EVQLVESGGGLVQPGGSLRLSCAASGFIVTTNYMTWLRQAPGKGLEWVSLIYSSGHTYYADSVKGRFTISRHNSKNTLYLQMDSLRAEDTAVYYCASAFAADVFDIWGQGTMVTVSS
VL: not shown
B9: H4H14640D (bispecific antibody, human IgG4, V domains shown)
VH 1: QVQLVQSGTEVKEPGASVKVSCKASGYSFTTYGISWLRQAPGQGLEWMGWISTYNGDTISAQMLQDRVTLTADTSTRTAYMELRSLRSDDTAVYYCARGHEYDSLVYSYWGQGTLVTVSS
VH 2: EVQLVESGGGLVQPGGSLRLSCAASGFIVTTNYMTWLRQAPGKGLEWVSLIYSSGHTYYADSVKGRFTISRHNSKNTLYLQMDSLRAEDTAVYYCASAFAADVFDIWGQGTMVTVSS
VL: not shown
B10: H4H13311P2 (antibody, human IgG4, V domains shown)
VH: QVQLVESGGGVVQPGRSLRLSCAASGFTFSSYAMHWVRQAPGRGLEWVAVIWHDGDVEYYVDSVKDRFTISRDNSKSTLYLQMNSLRAEDTALYYCAREAWDLLRPFDYWGQGTLVTVSS
VL: not shown
B11: H4H14639D-Maytansinoid A (bispecific antibody, human IgG4, V domains shown)
VH 1: EVQLVESGGGLVQPGTSLRLSCAASGFTFDDYAMHWVRQAPGKGLEWVSGITWNSYNIDYADSVKGRFTISRDNAKNSLYLQMNSLRAEDTALYYCAKDDDYSNYVYFDYWGQGTLVTVSS
VH 2: EVQLVESGGGLVQPGGSLRLSCAASGFIVTTNYMTWLRQAPGKGLEWVSLIYSSGHTYYADSVKGRFTISRHNSKNTLYLQMDSLRAEDTAVYYCASAFAADVFDIWGQGTMVTVSS
VL: not shown
modifications: conjugated with SMCC-DM1 diastereomer (Maytansinoid A); residues and chain of attachment not stated

biological target: T1, human MET (c-Met, hepatocyte growth factor receptor), endogenous on human cell lines (human, UniProt P08581 25-1390); assay: cell-based or functional assay
Wherever % Inhibition (HEK293/SRE-Luc Blocking Activity, 1 h mAb pre-bind) is given: test concentration or dose not given here.

T1 sequence (P08581 25-1390 limits assumed, form in doubt): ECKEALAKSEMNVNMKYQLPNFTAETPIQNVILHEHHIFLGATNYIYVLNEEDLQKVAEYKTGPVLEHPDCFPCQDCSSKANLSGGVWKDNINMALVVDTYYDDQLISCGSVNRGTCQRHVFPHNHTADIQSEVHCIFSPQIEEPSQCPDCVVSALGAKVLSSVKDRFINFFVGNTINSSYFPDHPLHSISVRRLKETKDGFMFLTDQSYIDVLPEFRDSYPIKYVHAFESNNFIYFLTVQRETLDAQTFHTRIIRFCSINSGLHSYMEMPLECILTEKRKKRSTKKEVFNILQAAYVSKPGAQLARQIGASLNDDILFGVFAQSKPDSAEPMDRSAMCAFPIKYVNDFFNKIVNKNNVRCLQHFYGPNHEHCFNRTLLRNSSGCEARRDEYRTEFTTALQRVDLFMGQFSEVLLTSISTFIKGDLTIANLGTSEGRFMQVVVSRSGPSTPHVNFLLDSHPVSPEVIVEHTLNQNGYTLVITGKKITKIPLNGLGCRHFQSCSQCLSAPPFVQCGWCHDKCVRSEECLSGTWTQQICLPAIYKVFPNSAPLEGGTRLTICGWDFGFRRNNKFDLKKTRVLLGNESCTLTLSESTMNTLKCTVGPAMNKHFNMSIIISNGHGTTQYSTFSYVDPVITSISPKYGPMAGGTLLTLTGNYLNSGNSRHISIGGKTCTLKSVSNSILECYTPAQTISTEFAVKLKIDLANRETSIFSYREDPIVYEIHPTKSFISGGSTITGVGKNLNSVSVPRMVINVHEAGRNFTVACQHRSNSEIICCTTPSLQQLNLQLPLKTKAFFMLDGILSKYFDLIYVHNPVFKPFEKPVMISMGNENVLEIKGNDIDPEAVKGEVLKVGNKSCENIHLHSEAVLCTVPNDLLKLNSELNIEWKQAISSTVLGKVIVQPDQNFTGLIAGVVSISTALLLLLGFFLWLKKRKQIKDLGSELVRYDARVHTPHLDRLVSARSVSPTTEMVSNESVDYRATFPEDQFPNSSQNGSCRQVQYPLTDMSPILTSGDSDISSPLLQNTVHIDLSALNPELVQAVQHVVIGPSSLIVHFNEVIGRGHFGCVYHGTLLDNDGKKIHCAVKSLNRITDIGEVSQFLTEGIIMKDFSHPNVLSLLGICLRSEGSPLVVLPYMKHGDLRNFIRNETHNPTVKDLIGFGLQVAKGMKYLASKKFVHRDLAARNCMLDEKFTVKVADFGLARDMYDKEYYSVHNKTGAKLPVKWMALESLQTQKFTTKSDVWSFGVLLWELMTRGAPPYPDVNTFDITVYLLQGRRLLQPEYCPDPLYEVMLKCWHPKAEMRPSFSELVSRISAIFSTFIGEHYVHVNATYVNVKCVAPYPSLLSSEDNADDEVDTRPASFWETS

In order of falling “% Inhibition (HEK293/SRE-Luc Blocking Activity, 1 h mAb pre-bind)” value:
1. B9  89%
2. B8  85%
3. B5  77%
4. B6  77%
5. B4  75%
6. B1  69%
7. B7  67%
8. B10  62%
9. B3  56%
10. B2  51%

Going from B1 to B2, the “EC50 (Ligand (HGF)-Independent HEK293/SRE-Luc Activation)” value falls from 0.48 nM to 0.0037 nM (130-fold).

Compared with B3, B4 is higher in “EC50 (Ligand (HGF)-Independent HEK293/SRE-Luc Activation)” value: under 0.002 nM for the first, 0.0023 nM for the second.

First: B5
Second: B7
The “EC50 (Ligand (HGF)-Independent HEK293/SRE-Luc Activation)” value of the first is 2.2-fold higher: 0.39 nM for the first, 0.18 nM for the second.

First: B8
Second: B9
The “EC50 (Ligand (HGF)-Independent HEK293/SRE-Luc Activation)” value of the first is 76-fold lower: 0.09 nM for the first, 6.8 nM for the second.

For B10, the “EC50 (Ligand (HGF)-Independent HEK293/SRE-Luc Activation)” value was 0.3 nM.

In order of rising “Fold Response (Ligand (HGF)-Independent HEK293/SRE-Luc Activation)” value:
1. B9  2.5 fold
2. B1  2.8 fold
3. B6  3.1 fold
4. B8  3.4 fold
5. B7  4.8 fold
6. B10  5.2 fold
7. B4  7.1 fold
8. B5  9.2 fold
9. B3  9.8 fold
10. B2  14.4 fold

First: B1
Second: B3
The “IC50 (HEK293/SRE-Luc Blocking Activity, 1 h mAb pre-bind)” value of the first is higher: 0.12 nM for the first, under 0.002 nM for the second.

First: B4
Second: B5
The “IC50 (HEK293/SRE-Luc Blocking Activity, 1 h mAb pre-bind)” value of the first is lower: under 0.01 nM for the first, 0.2 nM for the second.

First: B6
Second: B7
The “IC50 (HEK293/SRE-Luc Blocking Activity, 1 h mAb pre-bind)” value of the first is 1.9-fold higher: 0.1 nM for the first, 0.052 nM for the second.

Compared with B8, B9 is 54-fold higher in “IC50 (HEK293/SRE-Luc Blocking Activity, 1 h mAb pre-bind)” value: 0.0097 nM for the first, 0.52 nM for the second.

In the case of B10, the “IC50 (HEK293/SRE-Luc Blocking Activity, 1 h mAb pre-bind)” value is reported as 0.035 nM.

biological target: T1, human MET (c-Met, hepatocyte growth …); assay: cell-based or functional assay; remark: another data set of the same source

B11 was tested, and the “IC50 (nM), 3-day in vitro cytotoxicity assay, MDA-MB-231 cells (low MET)” value was over 100 nM.

With B11 the “IC50 (nM), 3-day in vitro cytotoxicity assay, SNU-5 cells” value was 0.4 nM.

B11 was tested, and the “IC50 (nM), 3-day in vitro cytotoxicity assay, U87MG cells (low MET)” value was 100 nM.
